Test results reported in US20260235601, “APTAMER BASED DETECTION OF SARS-COV-2 INFECTION” (COUNCIL OF SCIENTIFIC & INDUSTRIAL RESEARCH, published 2026).
Where a chain is given by its changes, count along the chain named.

B1: AptRBD9 (ssDNA)
DNA: ATGCGGATCCCGCGCCCGACGTCGCATGCTCCCGGCCGCCATGGCGGCCGCGGGAATTCGATTAGCGCGAAGCTTGCGC
B2: AptRBD2 (ssDNA)
DNA: ATGCGGATCCCGCGCATATTAAAGGGGAGGCTCCCTATGGGTTTGTCCGATTAGCTGCGCGAAGCTTGCGC
B3: AptRBD5 (ssDNA)
DNA: ATGCGGATCCCGCGCATTTAAAGGGAGACCTATGGGTTTGTCCGATTAGCTGCGCGAAGCTTGCGC
B4: AptRBD4 (ssDNA)
DNA: ATGCGGATCCCGCGCATTTAAAGCGTCGATGCGTATGGGTTTGTCCGATTAGCTGCGCGAAGCTTGCGC
B5: AptRBD3 (ssDNA)
DNA: ATGCGGATCCCGCGCATTTAAAGCGGTTCGATGCGTATGGGTTTGTCCGATTCGGTGCGCGAAGCTTGCGC
B6: AptRBD6 (ssDNA)
DNA: B5 DNA with G26C, C53A, G55C
B7: AptRBD8 (ssDNA)
DNA: ATGCGGATCCCGCGCATTTAAAGGGGGCGCTCCGTATGGGTTTGTCCGATTAGCTGCGCGAAGCTTGCGC

Biological target: SARS-CoV-2 spike receptor-binding domain (RBD) (SARS-CoV-2 (Wuhan strain), UniProt P0DTC2 P0DTC2:319-541)
Experiment: ELONA
Conditions: tags: N-terminal His tag, pET-15b, E. coli BL21 Star (DE3), about 26 kDa

| Binder | binding result | activity [ng/mL] | also measured |
| --- | --- | --- | --- |
| B1 | binds |  |  |
| ATTTAAAGCGGTTCGATGCGTATGGTTTGTCCGATTCGGT (ssDNA) [AptRBD3.1] |  | 4 |  |
| B2 | binds |  |  |
| ATTTAAAGCGCTTCGATGCGTATGGGTTTGTCCGAT (ssDNA) [AptRBD6.1] |  | 4 |  |
| ATTTAAAGCGGTTCGATGCGTATGGTTTGTCCGAT (ssDNA) [AptRBD3.2] |  | 4 |  |
| AGCGGTTCGATGCGTATGGTTTGTCCGAT (ssDNA) [AptRBD3.3] |  | 4 |  |
| B3 | binds |  |  |
| B4 | binds |  |  |
| B5 |  |  | binding signal: 0.75 absorbance |
| B6 |  |  | binding signal: 0.7 absorbance |
| ATTTAAAGGGGGCGCTCCGTATGGGTTTGTCCGATTAGCT (ssDNA) [AptRBD8.1] |  | 8 |  |
| B7 |  |  | binding signal: 0.75 absorbance |
